Earlier results in PMC9836287.

Biological target: CEP250 (Homo sapiens) (UniProt Q9BV73)
Chain of UniProt Q9BV73 (Q9BV73 whole entry): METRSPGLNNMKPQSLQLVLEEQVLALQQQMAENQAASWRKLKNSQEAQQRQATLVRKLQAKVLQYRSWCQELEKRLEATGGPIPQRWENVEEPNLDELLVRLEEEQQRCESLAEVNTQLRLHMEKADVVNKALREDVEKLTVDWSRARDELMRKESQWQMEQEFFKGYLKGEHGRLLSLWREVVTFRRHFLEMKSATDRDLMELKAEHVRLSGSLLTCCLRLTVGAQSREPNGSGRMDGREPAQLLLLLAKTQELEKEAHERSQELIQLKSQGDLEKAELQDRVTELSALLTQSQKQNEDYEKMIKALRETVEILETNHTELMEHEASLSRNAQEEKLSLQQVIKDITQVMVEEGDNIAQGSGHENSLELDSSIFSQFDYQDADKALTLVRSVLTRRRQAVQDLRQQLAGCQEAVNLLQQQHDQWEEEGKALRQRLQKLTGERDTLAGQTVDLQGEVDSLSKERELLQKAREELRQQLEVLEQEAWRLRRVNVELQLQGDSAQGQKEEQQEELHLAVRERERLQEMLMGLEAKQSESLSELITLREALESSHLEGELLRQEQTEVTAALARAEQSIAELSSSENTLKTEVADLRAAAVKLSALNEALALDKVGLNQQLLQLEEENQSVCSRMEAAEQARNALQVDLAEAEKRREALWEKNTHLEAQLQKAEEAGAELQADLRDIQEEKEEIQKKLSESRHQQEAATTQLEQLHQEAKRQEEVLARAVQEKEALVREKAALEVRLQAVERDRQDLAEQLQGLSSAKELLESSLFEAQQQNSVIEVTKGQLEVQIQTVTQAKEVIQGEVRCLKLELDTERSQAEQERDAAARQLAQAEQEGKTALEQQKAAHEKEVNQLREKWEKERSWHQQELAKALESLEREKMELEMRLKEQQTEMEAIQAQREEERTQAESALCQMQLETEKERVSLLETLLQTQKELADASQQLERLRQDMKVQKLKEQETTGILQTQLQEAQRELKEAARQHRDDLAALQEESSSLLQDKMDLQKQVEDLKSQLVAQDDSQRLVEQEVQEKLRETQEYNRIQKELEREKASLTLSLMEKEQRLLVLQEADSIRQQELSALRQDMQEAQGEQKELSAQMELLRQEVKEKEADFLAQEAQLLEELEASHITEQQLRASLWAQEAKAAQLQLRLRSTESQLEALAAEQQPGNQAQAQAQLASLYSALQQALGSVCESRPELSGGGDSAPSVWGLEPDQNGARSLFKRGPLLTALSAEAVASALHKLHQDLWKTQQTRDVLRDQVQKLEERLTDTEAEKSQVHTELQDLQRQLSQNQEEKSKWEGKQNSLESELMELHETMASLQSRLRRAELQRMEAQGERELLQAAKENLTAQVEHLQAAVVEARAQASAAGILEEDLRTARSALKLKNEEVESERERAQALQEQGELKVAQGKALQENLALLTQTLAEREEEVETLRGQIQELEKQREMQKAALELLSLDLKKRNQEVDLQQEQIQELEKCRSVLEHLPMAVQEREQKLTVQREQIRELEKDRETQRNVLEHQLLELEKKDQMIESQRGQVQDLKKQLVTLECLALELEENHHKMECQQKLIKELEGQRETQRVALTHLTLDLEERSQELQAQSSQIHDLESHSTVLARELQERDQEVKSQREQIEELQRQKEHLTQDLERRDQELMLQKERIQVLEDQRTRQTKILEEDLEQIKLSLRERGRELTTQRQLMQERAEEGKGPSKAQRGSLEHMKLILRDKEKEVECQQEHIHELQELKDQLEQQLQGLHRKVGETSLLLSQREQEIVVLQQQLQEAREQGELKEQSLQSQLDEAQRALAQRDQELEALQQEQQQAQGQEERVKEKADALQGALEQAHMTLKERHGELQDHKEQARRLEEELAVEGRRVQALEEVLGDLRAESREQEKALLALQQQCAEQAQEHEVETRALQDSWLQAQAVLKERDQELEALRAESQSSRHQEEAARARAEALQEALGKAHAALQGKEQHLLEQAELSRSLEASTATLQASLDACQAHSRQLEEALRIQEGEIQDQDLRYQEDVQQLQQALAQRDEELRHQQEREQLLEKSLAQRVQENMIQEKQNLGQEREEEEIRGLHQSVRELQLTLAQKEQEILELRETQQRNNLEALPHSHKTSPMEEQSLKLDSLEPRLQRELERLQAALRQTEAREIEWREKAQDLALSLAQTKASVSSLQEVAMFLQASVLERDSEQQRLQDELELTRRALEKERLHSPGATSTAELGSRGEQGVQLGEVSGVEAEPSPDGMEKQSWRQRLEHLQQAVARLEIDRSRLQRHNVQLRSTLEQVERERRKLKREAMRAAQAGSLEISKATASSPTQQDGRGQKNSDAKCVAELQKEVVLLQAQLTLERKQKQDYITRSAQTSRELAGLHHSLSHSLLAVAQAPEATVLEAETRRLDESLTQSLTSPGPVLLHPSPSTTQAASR

Kd: 40 nM
Substance: FKBP12 (from UniProt P62942)
